{"source": "FireProtDB (doi:10.1002/cbic.201402128)", "proteins": {"B1": {"name": "Haloalkane dehalogenase wild type, D4Z2G1 (protein)", "chain": "MSLGAKPFGEKKFIEIKGRRMAYIDEGTGDPILFQHGNPTSSYLWRNIMPHCAGLGRLIACDLIGMGDSDKLDPSGPERYAYAEHRDYLDALWEALDLGDRVVLVVHDWGSALGFDWARRHRERVQGIAYMEAIAMPIEWADFPEQDRDLFQAFRSQAGEELVLQDNVFVEQVLPGLILRPLSEAEMAAYREPFLAAGEARRPTLSWPRQIPIAGTPADVVAIARDYAGWLSESPIPKLFINAEPGALTTGRMRDFCRTWPNQTEITVAGAHFIQEDSPDEIGAAIAAFVRRLRPA"}}, "details": "Sphingobium indicum (strain DSM 16413 / CCM 7287 / MTCC 6362 / UT26 / NBRC 101211 / UT26S); pH 7.5; Thermal; fluorescence; Na-Hepes 50 mM; reversible: no; whole UniProt chain shown", "note": "Several values for one entry are separate records, joined by “and”; a condition that tells them apart may be missing. Equal values may be shown once."}
{"protein": "B1", "values": [{"measurement": "Tm", "result": "51 °C and 49 °C"}]}
